The supplement of paper PMC10126150
± gives the standard deviation of the averaged measurements.
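Also: ATP exposure 15 min at 22 °C before imaging.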

What follows are sequences tested on ATP (assay: switch fluorescence ratio, 500 uM ATP over buffer (Cy3 cluster intensity, sum of 5 cycles each) (fold (ratio)); higher = stronger signal-on switching upon ATP binding; sequences stand for … in TCGTCGGCAGCGTCAGATGTGTATAAGAGACAGTTTTTTTTTTTTTTTTTTTTTTTTT…TC). Settings: aptamer strand: ATP DNA aptamer (quencher-CACCTGGGGGAGTATTGCGGAGGAAGG + anchor), 100 nM annealed; ATP concentration: 500 uM.
Summary of the method: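 After annealing to 100 nM quencher-labelled ATP aptamer, Cy3-labelled switching-strand clusters on a modified Illumina MiSeq flow-cell were imaged in selection buffer. A second image followed after 15 min with 500 uM ATP at 22 °C, and five such buffer/ATP cycles were done, each separated by NaOH stripping and re-annealing. The fluorescence ratio, averaged per switch-domain sequence, is summed target-cycle over summed buffer-cycle Cy3 intensity per cluster, with clusters outside 100-1000 RFU excluded.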
In the case of GCGTCAGGCG, the switch fluorescence ratio is reported as 0.971 ± 0.026.
GCGTCAGGGG was tested, and the switch fluorescence ratio was 1.03 ± 0.086.
GCGTCAGGGT was tested, and the switch fluorescence ratio was 0.973 ± 0.027.
Sequence GCGTCAGTCG has a switch fluorescence ratio of 0.949 ± 0.015.
In the case of GCGTCTGGGG, the switch fluorescence ratio is reported as 1.019 ± 0.0046.
In the case of GCGTCTTCAT, the switch fluorescence ratio is reported as 0.979 ± 0.011.
With GCGTCTTGTG the switch fluorescence ratio was 1.02 ± 0.11.
For GCGTCTTTGG, the switch fluorescence ratio was 0.988 ± 0.026.
For GCGTGACGGG, the switch fluorescence ratio was 0.989 ± 0.037.
Sequence GCGTGAGCAC has a switch fluorescence ratio of 0.9745 ± 0.0089.
GCGTGATAAT showed a switch fluorescence ratio of 1 ± 0.062.
GCGTGCATTA showed a switch fluorescence ratio of 0.984 ± 0.034.
In the case of GCGTGCCGAC, the switch fluorescence ratio is reported as 0.9793 ± 0.0041.
Sequence GCGTGTATGA has a switch fluorescence ratio of 1.02 ± 0.033.
GCGTGTATGG was tested, and the switch fluorescence ratio was 1.03 ± 0.03.
For GCGTTAAAAG, the switch fluorescence ratio was 1.03 ± 0.02.
Work on GCGTTAACGG yielded a switch fluorescence ratio of 1.02 ± 0.011.
GCGTTACGGG showed a switch fluorescence ratio of 1.002 ± 0.0089.
GCGTTAGGGG showed a switch fluorescence ratio of 0.979 ± 0.016.
Sequence GCGTTATACA has a switch fluorescence ratio of 0.9979 ± 0.0039.
GCGTTATTTG showed a switch fluorescence ratio of 0.9878 ± 0.0073.
GCGTTCATAG gave a switch fluorescence ratio of 0.995 ± 0.023.
GCGTTCGGCA showed a switch fluorescence ratio of 0.991 ± 0.026.
GCGTTCTCGT showed a switch fluorescence ratio of 0.989 ± 0.018.
GCGTTGAGGG showed a switch fluorescence ratio of 0.952 ± 0.079.
In the case of GCGTTGATGT, the switch fluorescence ratio is reported as 0.981 ± 0.017.
Work on GCGTTGGG yielded a switch fluorescence ratio of 1.02 ± 0.029.
Work on GCGTTGGGAG yielded a switch fluorescence ratio of 1.018 ± 0.0031.
Work on GCGTTGGGCT yielded a switch fluorescence ratio of 0.949 ± 0.016.
Sequence GCGTTGGGGA has a switch fluorescence ratio of 1.02 ± 0.015.
GCGTTGGGGT was tested, and the switch fluorescence ratio was 1.01 ± 0.019.
In the case of GCGTTTAAAG, the switch fluorescence ratio is reported as 0.994 ± 0.023.
GCGTTTCTAG showed a switch fluorescence ratio of 0.992 ± 0.028.
GCGTTTGAAA showed a switch fluorescence ratio of 1.01 ± 0.013.
Work on GCGTTTTAGC yielded a switch fluorescence ratio of 0.995 ± 0.041.
Sequence GCGTTTTCGA has a switch fluorescence ratio of 1 ± 0.021.
For GCTAAAAAAT, the switch fluorescence ratio was 0.98 ± 0.013.
In the case of GCTAAAAGGA, the switch fluorescence ratio is reported as 0.975 ± 0.021.
Sequence GCTAAAATGG has a switch fluorescence ratio of 0.9916 ± 0.0076.
GCTAAATTAT gave a switch fluorescence ratio of 0.963 ± 0.021.
For GCTAACACGG, the switch fluorescence ratio was 1.048 ± 0.0053.
GCTAACTTTT was tested, and the switch fluorescence ratio was 1.03 ± 0.021.
GCTAAGTATG showed a switch fluorescence ratio of 1.04 ± 0.043.
For GCTAATAGTT, the switch fluorescence ratio was 1.01 ± 0.06.
GCTAATGTGC was tested, and the switch fluorescence ratio was 1.02 ± 0.018.
Work on GCTACCTGGT yielded a switch fluorescence ratio of 1.02 ± 0.013.
Sequence GCTACGCAGC has a switch fluorescence ratio of 3.05 ± 1.8.
GCTACGGTAT showed a switch fluorescence ratio of 1.13 ± 0.07.
For GCTAGAATAT, the switch fluorescence ratio was 1.02 ± 0.014.
GCTAGAATGT was tested, and the switch fluorescence ratio was 1 ± 0.019.
GCTAGAGACG showed a switch fluorescence ratio of 1.06 ± 0.054.
Work on GCTAGATGGG yielded a switch fluorescence ratio of 1.01 ± 0.034.
In the case of GCTAGCGGAC, the switch fluorescence ratio is reported as 1.14 ± 0.025.
GCTAGGGGA showed a switch fluorescence ratio of 1.02 ± 0.011.
Sequence GCTAGGGGGA has a switch fluorescence ratio of 1.03 ± 0.05.
Sequence GCTAGTCTCA has a switch fluorescence ratio of 1.01 ± 0.028.
With GCTAGTTGGT the switch fluorescence ratio was 0.99 ± 0.017.
With GCTAGTTGTA the switch fluorescence ratio was 0.9995 ± 0.0074.
With GCTAGTTTTT the switch fluorescence ratio was 1 ± 0.022.
For GCTATAAGCC, the switch fluorescence ratio was 1.05 ± 0.039.
Sequence GCTATATCTA has a switch fluorescence ratio of 1.02 ± 0.022.
Work on GCTATATGTA yielded a switch fluorescence ratio of 1 ± 0.031.
GCTATCAGCG gave a switch fluorescence ratio of 0.995 ± 0.023.
With GCTATCTTTT the switch fluorescence ratio was 1.02 ± 0.04.
GCTATGGGCG showed a switch fluorescence ratio of 1.03 ± 0.033.
With GCTATGTTTG the switch fluorescence ratio was 0.9757 ± 0.0064.
Work on GCTATTAAAG yielded a switch fluorescence ratio of 1 ± 0.026.
With GCTATTATTT the switch fluorescence ratio was 0.9845 ± 0.0027.
GCTATTGTGT showed a switch fluorescence ratio of 0.9858 ± 0.0036.
GCTATTGTTT was tested, and the switch fluorescence ratio was 0.9633 ± 0.0082.
With GCTATTTTCG the switch fluorescence ratio was 0.99 ± 0.023.
In the case of GCTATTTTTT, the switch fluorescence ratio is reported as 0.987 ± 0.022.
For GCTCAAATGG, the switch fluorescence ratio was 1.04 ± 0.013.
Sequence GCTCAAGCGA has a switch fluorescence ratio of 1.464 ± 0.0035.
For GCTCAATCTT, the switch fluorescence ratio was 0.967 ± 0.01.
GCTCAATTTA gave a switch fluorescence ratio of 0.9689 ± 0.0083.
Sequence GCTCATTGGC has a switch fluorescence ratio of 0.992 ± 0.027.
GCTCCTCGCT gave a switch fluorescence ratio of 1.23 ± 0.081.
GCTCCTTAGG gave a switch fluorescence ratio of 1.12 ± 0.048.
GCTCGACGGC was tested, and the switch fluorescence ratio was 1.017 ± 0.0018.
With GCTCGAGGGT the switch fluorescence ratio was 1 ± 0.03.
With GCTCGAGTGG the switch fluorescence ratio was 1.03 ± 0.053.
With GCTCGGTTTG the switch fluorescence ratio was 0.97 ± 0.045.
Sequence GCTCGTACGA has a switch fluorescence ratio of 1.03 ± 0.027.
GCTCGTTATA showed a switch fluorescence ratio of 1.02 ± 0.019.
Sequence GCTCGTTTAG has a switch fluorescence ratio of 1.01 ± 0.02.
In the case of GCTCTACGGT, the switch fluorescence ratio is reported as 1.013 ± 0.0099.
Work on GCTCTCCTGT yielded a switch fluorescence ratio of 1.02 ± 0.023.
For GCTGACGGGT, the switch fluorescence ratio was 0.976 ± 0.018.
Sequence GCTGACTTGT has a switch fluorescence ratio of 0.977 ± 0.016.
With GCTGATTGTG the switch fluorescence ratio was 1 ± 0.023.
Work on GCTGATTTCG yielded a switch fluorescence ratio of 1 ± 0.029.
Sequence GCTGCCGGGG has a switch fluorescence ratio of 0.971 ± 0.046.
In the case of GCTGCTTAGG, the switch fluorescence ratio is reported as 0.974 ± 0.018.
Work on GCTGGAACCG yielded a switch fluorescence ratio of 1.08 ± 0.022.
Sequence GCTGGAGGTG has a switch fluorescence ratio of 1.03 ± 0.039.
Work on GCTGGCGGAT yielded a switch fluorescence ratio of 1.01 ± 0.041.
Work on GCTGGCTCTT yielded a switch fluorescence ratio of 1.01 ± 0.014.
GCTGGGACAG gave a switch fluorescence ratio of 0.999 ± 0.032.
Sequence GCTGGGAGAG has a switch fluorescence ratio of 0.989 ± 0.042.
